From the supplement of paper PMC12764529 come the findings set out here.

± gives the half width of the 95% confidence interval.

Data set [1] in a line: folding stability dG unfold from trypsin proteolysis; higher = more stable. The procedure, abridged: (§1)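 Digests were run with trypsin and chymotrypsin at 11 concentrations in threefold dilutions, plus a no-protease condition, on designed mini-proteins in a PA-tagged cDNA display construct. The mini-proteins were under 80 residues, had no cysteine, and were kept only when AlphaFold2 dimer inter-PAE was above 15. After sequencing, Bayesian fitting of the counts gave K50, from which unfolding free energy was derived against a sequence-predicted unfolded-state K50 and a shared folded-state K50, per protease or combined.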

Data set [2] is described as follows: folding stability dG unfold from chymotrypsin proteolysis; higher = more stable. Summed up: as §1
Data set [3] can be described thus: folding stability dG unfold (combined trypsin and chymotrypsin); higher = more stable. The procedure, abridged:
as §1

Consider “SAMEVIELEFPSVEELEAALKEKFNVEVEKLPDGTKRIKVEVDGELVLIEITDDKVRIRIISKEELEKLSAG [r14_402_TrROS_Hall]”, for which the “folding stability dG unfold” value is 12.7 ± 0.397 kJ/mol in data set [1], 6.39 ± 0.172 kJ/mol in data set [2] and 10.1 ± 0.544 kJ/mol in data set [3].
For “SAMEYTLEFDNLKGLTADEIEKAFRDEGYPDVKINGIRRNPDDWTITVHYGPGMPPNRVQNAIRKAIQESAG [r14_657_TrROS]”, in that order: 5.08 ± 0.188 kJ/mol, 7.83 ± 0.381 kJ/mol and 6.76 ± 0.46 kJ/mol.
On to “SAMIEIPFSPDTPVEERLAMIKEAIEAAKAAGIEPKEITLIVPPDREDILEAVEEAGIPKERVKIKDQPSAG [r14_589_JUSTAS]”, for which the figures for the “folding stability dG unfold” value in data set [1], in data set [2] and in data set [3] were 3.3 ± 0.188 kJ/mol, 6.25 ± 0.238 kJ/mol and 5.21 ± 0.293 kJ/mol, respectively.
For “SAMIKVVLPGAKLEKVEVFPDKTVKAVFVAKDHLVEIYFDPETGKALIRVYDGEKEYEFVLDVHPDDVISAG [r14_218_TrMRF]”, in that order: 14.5 ± 1.3 kJ/mol, 20.1 ± 1.05 kJ/mol and 18.1 ± 1.67 kJ/mol.
Regarding “SAMILLIKIENKNDGKEFIIEITPNKITIYDKKTGKKYEITVDGNTITIKINGKTYKAKIKEVIPEEELSAG [r14_208_TrROS_Hall]”, the “folding stability dG unfold” value was found to be 13.5 ± 0.837 kJ/mol in data set [1], 16.2 ± 0.402 kJ/mol in data set [2] and 14.8 ± 2.05 kJ/mol in data set [3].
For “SAMIVVPATFDDRTFVLRIERLPDGSYLVDVEDPDVSREAVVEALRELLPEDAKIVLDPETNLVYVSFDSAG [r14_370_TrMRF]” the same measures were 14 ± 0.46 kJ/mol, 15.6 ± 0.218 kJ/mol and 14.8 ± 0.36 kJ/mol.
Consider “SAMKIIKINGKEVLLVKNENGEILIFVKNKKTNKYYLVKIEIKDGKIKIVEVKPIKTYSLEELLKEELLSAG [r14_384_TrROS_Hall]”, for which the “folding stability dG unfold” value in data set [1] was 13.5 ± 0.669 kJ/mol; in data set [2] it was 14.44 ± 0.0962 kJ/mol; in data set [3], 14.3 ± 0.46 kJ/mol.
Turning to “SAMKIKIKVIGVLKPENHALIFLELDDSIPPEIPVVIRIKNENGEILEIPIEGNRALLVVDDRKIEILTSAG [r14_350_TrMRF]”, the “folding stability dG unfold” value in data set [1] is 7.61 ± 0.335 kJ/mol; in data set [2] it was 6.97 ± 0.301 kJ/mol; in data set [3] it was 7.24 ± 0.502 kJ/mol.
For “SAMKIKVPPGAEIITEDGEKIEPGQEVEVTDIEFDEETGEVHITVKIKNPETGEEIEEKVTIRFPKEEESAG [r14_258_TrROS_Hall]” the same measures were 5.38 ± 0.46 kJ/mol, 4.09 ± 0.176 kJ/mol and 4.55 ± 0.628 kJ/mol.
For “SAMKITEITYDKETNTITITVEIKLPPGVKKIKLKLFIDGAEIEEITMEVDEETGTVRITLKIRIPKDASAG [r14_244_TrROS_Hall]”, in that order: 20.5 ± 3.68 kJ/mol, 25.4 ± 3.26 kJ/mol and greater than 25.1 kJ/mol.
For “SAMKKIKLSPEALELAKKLPPDYKVTEIKVEKLEDGTVVVTLTVEKTNENGEKEKVELTIVLDKDGKPVSAG [r14_420_TrROS_Hall]” the same measures were 2.59 ± 0.272 kJ/mol, 0.123 ± 1.92 kJ/mol and 3.17 ± 1.55 kJ/mol.
For the sequence “SAMKKTETRVLEIRIGDYLAKIFLTEYEDGRVETLIEVYGPDPAVVEEVKDFLEKLDPDLEITEIVVLDSAG [r14_611_TrMRF]”, the “folding stability dG unfold” value in data set [1] was 13.1 ± 0.301 kJ/mol; in data set [2], 9.31 ± 0.134 kJ/mol; in data set [3], 11.2 ± 0.502 kJ/mol.
For “SAMKPFPAKEAIEQILEEMEDMPLPPGQEEVEFQIRLPDDGAPVQISIERNPGKWKIEIYVGNKPIWITSAG [r14_199_TrROS]” the same measures were 7.12 ± 0.343 kJ/mol, 10.1 ± 0.586 kJ/mol and 8.59 ± 0.502 kJ/mol.
Take “SAMKPGEKVKIKIITFEKKKDPKTGEEKIEMKEIEIEATITEVEEKDGKVTVKIKIENLPPGAMIIIEKSAG [r14_412_TrROS_Hall]”: the “folding stability dG unfold” value in data set [1] is 8.57 ± 0.289 kJ/mol; in data set [2] it was 15.2 ± 0.364 kJ/mol; in data set [3], 13.3 ± 0.36 kJ/mol.
For “SAMKTEVIEFENFTIVVEELPDGSKKIIILFENPEKAKEALEKNPWIKEFIAEAEKEGYDVELAVVEPESAG [r14_873_TrMRF]”, in that order: 13.5 ± 0.502 kJ/mol, 13.9 ± 0.176 kJ/mol and 13.4 ± 0.356 kJ/mol.
For “SAMKTVTIKVTVEVTKNENGEEVKTVTVTLTLPEEEMTEEQLKELAKELADKLAEENNLTVKITKIEVTSAG [r14_190_TrROS_Hall]”, in that order: 13.7 ± 0.795 kJ/mol, 12.3 ± 0.418 kJ/mol and 12.9 ± 0.251 kJ/mol.
Consider “SAMKTYTLPNATITVETLPGDNTIVVTVTDPESGKTTTTTVSLDDPSLTIENIIARIEEQIKAGKPVSLSAG [r14_157_JUSTAS]”, for which the entries for the “folding stability dG unfold” value in data set [1], in data set [2] and in data set [3] were 9.74 ± 0.418 kJ/mol, 9.05 ± 0.226 kJ/mol and 9.04 ± 0.586 kJ/mol, respectively.
For “SAMKVEIVEVKKNEDGSEEITIKIVVPDDKDMTPEELAALLKKEFGVDEVKVEVVDENGYKVITITIKRSAG [r14_228_TrROS_Hall]” the same measures were 16.9 ± 1.09 kJ/mol, 14.8 ± 0.628 kJ/mol and 16.3 ± 1 kJ/mol.
In the case of “SAMKVTITVTKHTLPDGTPYYTVTITDPSTGKTFSGPVSSEEEAKATAQALADKIEAEGTPVTITFTDDSAG [r14_263_JUSTAS]”, the “folding stability dG unfold” value in data set [1] worked out at 16.6 ± 0.962 kJ/mol; in data set [2], 16.9 ± 0.36 kJ/mol; in data set [3], 16.7 ± 0.586 kJ/mol.
For “SAMKWSEVVVSYPSDRWYAEIYTPGPGGELTSVSYREFDSLEELEQWIEEKAPPGEVEVKREPAPPELLSAG [r14_964_JUSTAS]”, in that order: 4.89 ± 0.138 kJ/mol, 3.02 ± 0.393 kJ/mol and 4.05 ± 0.213 kJ/mol.
For “SAMKYTVKLPPGAEPIQPEELAALPYVEVVEVEISDGEDGTRTLTITVSPDVPEENVEKLKEYIEKKLKSAG [r14_421_JUSTAS]”, in that order: 12.3 ± 0.322 kJ/mol, 13.3 ± 0.18 kJ/mol and 13.1 ± 0.356 kJ/mol.
For “SAMKYVELKLTITVPKEKEEEIEKLKKALEKLGAEIVSVEVEYDEETEEVTVTVTIRIENLSEEELKKASAG [r14_956_TrROS_Hall]” the same measures were 8.26 ± 0.201 kJ/mol, 12.4 ± 0.335 kJ/mol and 11.2 ± 0.36 kJ/mol.
For “SAMLRIRVEYEDGRVEDIVIPLAGEDPPFGKEAVEEAAERIAKEVEEKYGLKNVKTEVEAFPVSPEELLSAG [r14_378_TrMRF]”, the “folding stability dG unfold” value in data set [1] amounted to 1.36 ± 0.402 kJ/mol; in data set [2], 4.45 ± 0.837 kJ/mol; in data set [3], 3.42 ± 0.418 kJ/mol.
For “SAMMYLIRVTITVKNKETGEEKEIEVEILIEKEEGELTEEEIEELARKLAEELGLEVEEIKIEIEPLPESAG [r14_278_TrROS_Hall]”, the “folding stability dG unfold” value in data set [1] was found to be 18.2 ± 0.837 kJ/mol; in data set [2], 22.1 ± 0.669 kJ/mol; in data set [3] it was 22.2 ± 1 kJ/mol.
For “SAMNLRFPLSTEALAKLLENLTPDQTLELRVRIGDRWVRVRLEIHRIERKEDELRVEVTLEVEPLRPEDSAG [r14_335_TrMRF]”, in that order: 14 ± 0.397 kJ/mol, 14 ± 0.251 kJ/mol and 14 ± 0.795 kJ/mol.
For “SAMPKPALTIEIPLPNGQTVRIDVYYDPETGTYTVNVTRTLPNGEPFTRTYTVESPEEAIKNIEVTDFGSAG [r14_749_TrMRF]”, in that order: 13.8 ± 0.544 kJ/mol, 13.3 ± 0.326 kJ/mol and 13.5 ± 0.502 kJ/mol.
For “SAMPLDDLPAEQIRELVRSIMRKHGMPPDNVEVDVEVQRPPDGYYYITVDVEMRMNGKERKYKFTIWIPSAG [r14_703_TrROS]” the same measures were 12.5 ± 0.301 kJ/mol, 17.5 ± 0.209 kJ/mol and 15.7 ± 0.418 kJ/mol.
Regarding “SAMPVFTFPVEIPGPEYTPEEIVAILKEAAAKLNLPVDEEVIRELAEKALAEGTTVADIIEEILKRGLGSAG [r14_364_JUSTAS]”, the figures for the “folding stability dG unfold” value in data set [1], in data set [2] and in data set [3] were 12.8 ± 0.393 kJ/mol, 7.86 ± 0.188 kJ/mol and 10.6 ± 0.322 kJ/mol, respectively.
In the case of “SAMPVVTLKAKVTIHSDPNGIEEKEIEITVTFPDPNVGLEEAKKKAEEAIKEYAEKNGLKIELEEITIESAG [r14_190_JUSTAS]”, the entries for the “folding stability dG unfold” value in data set [1], in data set [2] and in data set [3] were 4.97 ± 0.335 kJ/mol, 8.61 ± 0.197 kJ/mol and 7.87 ± 0.377 kJ/mol, respectively.
As to “SAMRAAVLAAAEEITAHPEFEAVGISPDGTFLFRNPATGKVYRIRLEAEDDGEGVIVRVPSIEPLDAPDSAG [r14_20_TrMRF]”, the “folding stability dG unfold” value in data set [1] is 5.97 ± 0.117 kJ/mol; in data set [2] it was 8.05 ± 0.213 kJ/mol; in data set [3], 7.33 ± 0.364 kJ/mol.
In the case of “SAMRILIEFDSPEEAEEALRKLVEEAGLVLEEIKVEIAPAKVTTTTPDGKKVTKTKYFALAEIKLSKKESAG [r14_773_TrMRF]”, the “folding stability dG unfold” value in data set [1] turned out to be 6.16 ± 0.28 kJ/mol; in data set [2] it was 9.17 ± 0.36 kJ/mol; in data set [3], 8.88 ± 0.795 kJ/mol.
For “SAMRPGDPWKPVEERKIPIRNPNNGKEIEIEVYRFKDDGMYMVSIHFPDGKSIQFMVPPGDVEEIIEQISAG [r14_240_TrROS]”, in that order: 5.38 ± 0.155 kJ/mol, 13.27 ± 0.0669 kJ/mol and 11.7 ± 0.243 kJ/mol.
For “SAMSLTIETDGSLEDVIAALKAFLEANPNVPFIISPPNGEVKVIDLGLADKILVIPDPDGKVRITVINPSAG [r14_807_TrMRF]” the same measures were 7.35 ± 0.0962 kJ/mol, 7.12 ± 0.1 kJ/mol and 7.34 ± 0.151 kJ/mol.
For “SAMSVTISFDPKGPGGTLTITADPNSPQIEKFINELKKKLNLDIKSYTKTILPNGTVKVTLTYSKINLPSAG [r14_655_JUSTAS]” the same measures were 16.9 ± 0.46 kJ/mol, 19.49 ± 0.117 kJ/mol and 18.9 ± 0.347 kJ/mol.
With “SAMTEEEKKKKKEEEEKKKRELKIIVVAKTKDGKWKKIAEFTVKNKDMSIEELVKKLKDLGVEEVKIFPSAG [r14_318_TrROS_Hall]”, the figures for the “folding stability dG unfold” value in data set [1], in data set [2] and in data set [3] were 7.52 ± 0.343 kJ/mol, 12.9 ± 0.389 kJ/mol and 11.2 ± 1.09 kJ/mol, respectively.
